Data: the supplement of paper PMC12636428

Test system: Saccharomyces cerevisiae
Assay: transcriptional activation domain activity (GFP:mCherry ratio, weighted mean of sorted bins, harmonized to initial dataset scale) (arbitrary fluorescence ratio units); higher = stronger transcriptional activation
Conditions: beta-estradiol 1 µM; induction time 4 h
Procedure, shortened: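 Protein tiles carrying barcodes and fused to an estradiol-inducible synthetic transcription factor were placed at the URA3 locus of yeast diploids with a GFP reporter. Following 4 hours at 30 °C in SC with 1 uM beta-estradiol, cells were sorted into 8 GFP:mCherry bins, barcodes were sequenced, and tiles with fewer than 50 reads were discarded. Activation activity is given as the read-weighted mean of bin median fluorescence, averaged across barcodes and linearly mapped to the initial dataset scale.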

MEFGSWGWKSIFFIFFSFRDFMVWHGGVSFFLPYINDFYIFVLIFYCFIYSAS
transcriptional activation domain activity: 59800

MEFPTPTCFLSFFSFFFHIVFVAYCVAYFSLSRFLFVPSFFFLFLLSYFRLLQ
transcriptional activation domain activity: 67500

MEFSFTMVGIFYFLYSLAWSFSFLFFISYDHSLAGLVTIVKAFLISYYFFIFL
transcriptional activation domain activity: 26200

MEGGRGSRGSHENNELFFFLSLHSRFFFFYLFIYFSLLFFSFTIYFMVFFFFF
transcriptional activation domain activity: 54600

MEGLVVCSVWIFSCVWSLWLALCIWIFCLFVGVWLVRIWRGPGLYLLFFFFFL
transcriptional activation domain activity: 71000

MEGMQVEQDIARGSRKPHRKSRLGCGNCKQRRVKCDERKPSCDRCVKHNILCD
transcriptional activation domain activity: 23800

MEGRHISVIKQLYGLYWLDVWKISLQLWSEVKGMYHVLQQNLWIITLFPFFAA
transcriptional activation domain activity: 64000

MEGRVGGDQKGGGFIFVYGSGVLDWGVFFRFIYISLSFFVWGLFLCVSFAFVL
transcriptional activation domain activity: 41200

MEGSEKAARVAPPAQRVRTGCLTCRKRHLKCDEAKPTCENCRKGRRECVRGLR
transcriptional activation domain activity: 6710

MEGYELRMVALLLFSLLFVVAKKRGVHTNPSRLAVFVVLLRLCFVFCCLLFLA
transcriptional activation domain activity: 85000

MEHFSLFLFRFFFLFFVFLFLRRRGGGFGTGFGFWFLVFGFWFLVFGFWFWLW
transcriptional activation domain activity: 64000

MEHLVYHAPGVLPKMECRPPFRLCLLLLILFLFLFLCCQKVPLWIFACRFCCG
transcriptional activation domain activity: 41200

MEHQDFFGFDYGLFDDNFPITSNSLRYDDLFHFEPLDLEQDDLGWGLPDPSLS
transcriptional activation domain activity: 143000

MEILKLPFYILHVLPLPIRGALATLTPLVRFHTVVVSLSCLLSLRCIYLLFFH
transcriptional activation domain activity: 75300

MELFFGLSFFLAYVPGCYSFLLTILIPLLCYYIFTRYLRCLVLHGLGFFFSLF
transcriptional activation domain activity: 77000

MELFFRLFFWLMSWLLQLTHYFNTFTVLLYIHSLFSGVWFCKVLGFSFFFLYH
transcriptional activation domain activity: 51600

MELLSLLFFLFFFFFLYSLFGYASTLSFLPHHLFSFLTIYFISYFCDILFFEF
transcriptional activation domain activity: 44900

MELSFFSVSSDGDLFFLLLFLIRGVLEKYFFDWYFDLPLWVFVCFFLFVFLTL
transcriptional activation domain activity: 54600

MELVLHCFYLGAIRKPGHTYDSWSSDTPFQLSMIGDSNLLIIWLWLLIPWRSF
transcriptional activation domain activity: 80500

MELYGTHGVFYYYFFVIGFFLDYHSFLSPLLSLLMRIEKDVSGIFFFVFLFFC
transcriptional activation domain activity: 63700

MEPRLGHPALLVYSLLLLLLILRWKMFSFLCVVFQWRCIMLFLVFLVFCWGVG
transcriptional activation domain activity: 35900

MEQSMGFMIHVYITVIPLGDVYEVLVFLILRSILPLPPGFLCLSLLLHDLFFI
transcriptional activation domain activity: 62400

MEQTLATNQSLQPVKRVACNRCRTQKLKCNPSGEGRGSSSKCVRCAKAGTDCT
transcriptional activation domain activity: 38900

MEQTNKEDSGSDTQACPICDAPAVNRCSRCASVYYCSQEHQKEVRYESPSNAL
transcriptional activation domain activity: 49900

MERNGNVVWILFWHFHLLFFWAMEKSFDFLHSKTLSPFWFITYFLYLLILFYL
transcriptional activation domain activity: 31900

MESAKKAVESVAEGIKKVAISGDQKPAAGGKKEGGKKEKKAAKAGAEVSSGPL
transcriptional activation domain activity: 34300

MESHSFLPICRYFWGVMPQLMPSFYLNLLSWFSLCFIVFHWLHTVVIFPYLLL
transcriptional activation domain activity: 49200

MESRARISTSVILYLCARLRSIAVITYMIVVRSLSTFVYLAQRFFILLWPIIW
transcriptional activation domain activity: 55600

MESVTCFYFHLFRFFHSRLLVFVLMLCFESIVSLFRFLCIFVFSLFFYIFFFF
transcriptional activation domain activity: 75500

METATPPQPKKGRRGNPKTRTGCVTCKMRRVKCDEAKPQCKRCISTGRTCDGY
transcriptional activation domain activity: 15500

METPEQPSAGRRRPHRKSRTGCAECRRRRIKCDEVKPACTACVRHDHPCVYPS
transcriptional activation domain activity: 22000

METSASARSPPPSTRQPSAPRRVRAALACQRCKGRKQKCEGGQPSCRSCIKAG
transcriptional activation domain activity: 60700

METTVSGQSSQPPAANDDQEPTKKRKRDKYVGKACGPCKRRKIRCGGGVPCES
transcriptional activation domain activity: 36300

MEVCSVWISSLWFFVFSAFSVLGLWSLVFGIWSFRESGWYMGPGFFFFFFLIL
transcriptional activation domain activity: 63100

MEVGSAAVAGPVLAAAHVPRKRRRPALSCEQCRKRKVKCDRTSPCGQCTRSKG
transcriptional activation domain activity: 32100

MEVRQRKPGSGRPKGSKNKAKPPGTEPRPRKPGSGRPKGSKNKTTLAAAAAAA
transcriptional activation domain activity: 30900

MEVVEGGGWKSFVYSCIRVIFLWGLDFGYFGLVACLISFCIGIFFSFFFPHYF
transcriptional activation domain activity: 27200

MEWHLLGSCLAGLVWGVFYIFFFFAACLIGFFPYHYHYLLLLLVLLTTNILFV
transcriptional activation domain activity: 49500

MEWLLHTVYVVAIKDTRAWGGFSPFQMSMVGYFNLKLIWLKLLIIWRFFRLWA
transcriptional activation domain activity: 76000

MEWMGGWLVLGGWIYLFCSVMFKLDRLVVFLEVFFFYLLLCVIVLVMGLVVML
transcriptional activation domain activity: 38800

MEWVRLLSKEVLLFYSIFFFSFVSFTVLTLFPLHESSILSRLLIFIYPLRHLV
transcriptional activation domain activity: 44700

MEWVRTARGRVPPGRRPVEGGYESSGARLYHALAVVDGVRVPGKTGEHLGGCN
transcriptional activation domain activity: 32000

MEYLIGHMEIYSVHFLHFCFFLRFLIFFFPLFFFFSYFSFHSYIYTFFFLEII
transcriptional activation domain activity: 31800

MFACPYLGLLCLSVTSMPYPFSQLFQPFISPRFCPECAPFSFFLHSFLGFHLT
transcriptional activation domain activity: 52200

MFAHFFFLRACCCPLPFFFCGYVFLIFSSPFSCFCFLCFWFCCFFFSVCFLLF
transcriptional activation domain activity: 58700

MFAKILVLSWFDSIRWGLFLLLCVMGVFLLFDIPFFLFPTCFLCLVFPFLLAK
transcriptional activation domain activity: 20400

MFAKILVLSWFDSIRWGLFLLLCVMGVFLLFDIPFSFSLLVFSAWYFLFFSRR
transcriptional activation domain activity: 33800

MFALLEILCLICILLLTKPRCLCFSIRLEILIFFSFFFFFFCIFLVGYTLSTL
transcriptional activation domain activity: 80600

MFCFFEFLFFYKEDLAAYALCSCSQLPASFFLFLFPSPLWLFFFFFIFCLTFM
transcriptional activation domain activity: 38900

MFCLRFFVPLLLLPAPSAPPLLILTLLISMWFLHRPCIYCSLLIVGFLISSCS
transcriptional activation domain activity: 55900

MFCLRSWIPILFFLLRTNASPIYLILFISATYFLNRPCVYCSLLLFILVVALF
transcriptional activation domain activity: 50800

MFCLRSWIPILFFLLRTNASPVYLILFLSATYFLNRPCVYCSFLLLILVIALF
transcriptional activation domain activity: 59500

MFCLRSWIPILFFLSVSNASPIYLILFVVTTYLLNRPCVYCSLLLGVLVLALF
transcriptional activation domain activity: 38500

MFCLRSWIPILFFLTNASPIYLLLFISATYTLNRPCVYCSLLLGILVLALFDF
transcriptional activation domain activity: 28600

MFCLRSWIPLLFIPANASPGFIFLFFVCTYFLNRPCVYCSILLLILFVTSCYW
transcriptional activation domain activity: 41000

MFCLRSWIPVLFFLLRTHASPIYLVLFISATYFLNRPCVYCSLLLFILVVALF
transcriptional activation domain activity: 61100

MFCLRSWIPVLFFLLRTHASPVYLVLFISATYFLNRPCVYCSLLLFILVVALF
transcriptional activation domain activity: 84400

MFCLRSWIPVLFFLLRTNASPVYLILSISATYFLNRPCVYCSLLLFILVVALF
transcriptional activation domain activity: 57600

MFCLRSWIPVLFFLLRTNASPVYLVLFLSATYFLNRPCVYCSLLLFILVVALF
transcriptional activation domain activity: 46500

MFCLRSWLPLLFIPTNAPPIFIFIFFFLNFFLSRPCVYCSFLLLILCLTSCYW
transcriptional activation domain activity: 36600

MFCLRSWLPLLFIPTNAPPIFVFLFFVCTFFLSRPCVYCSFLLAILFLTSCYW
transcriptional activation domain activity: 65100

MFCLRSWLPLLFIPTNAPPVFVFLFFACTFFLSRPCVYCSFLLLILFFTSCYW
transcriptional activation domain activity: 52700

MFCLRSWLPLLFIPTNASPAFIFLFFVCTYFLNRPCVYCSFLLLILFATSCYW
transcriptional activation domain activity: 36100

MFCLRSWLPLLFIPTNASPAFILLFFIGTYFLNRPCVYCSLLLLILFCTSCVW
transcriptional activation domain activity: 40200

MFCLRSWLPLLFIPTNASPIFIFLFFICTYFLNRPCVYCSFLLLILFASSCHW
transcriptional activation domain activity: 48400

MFCLRSWLPLLFIPTNASPIFIFLFFVSTYFLNRPCVYCSFLLLILFASSCHW
transcriptional activation domain activity: 52500

MFCLRSWLPLLFIPTNASPVFIFLFFVCTYFLNRPCVYCSFLLLILFMTSCNW
transcriptional activation domain activity: 62500

MFCLRSWLPLLFIPTNASPVFILLFFIGTYFLNRPCVYCSLLLLILFSTSCVW
transcriptional activation domain activity: 39400

MFCLRSWLPLLFIPTSASPVFIFLFFVCTYFLNRPCVYCSFLLLILFLTSCNW
transcriptional activation domain activity: 30800

MFCPDVCLVLSIGDVLLAMSYWRCLRETASLFHYHLVPPFELLPLYSVRITAA
transcriptional activation domain activity: 58800

MFCWLCYFLPFISFGFPLIYPSSVGILLWIVISGLCVFIFTLKMFLVFLLLFF
transcriptional activation domain activity: 46100

MFDYLVFTLCPCIFFILFLLILLVLLHKALVVFFFYHYSILVLVVPYYCLFVF
transcriptional activation domain activity: 86400

MFENFSLLLSSLCFFPLSLFFCFFFLFPLSSFFFFVFLLAFCFCCFRFSLFFF
transcriptional activation domain activity: 18100

MFESVNLDENSPEDRELAKVLSPPGSYLSPASLDSGSSFTNSGTSTSCFEPKN
transcriptional activation domain activity: 32400

MFFCSFFRWGFIFFFSFLFFSFILLCWCFLVFLNFATDPACNLPFSFLVFIPR
transcriptional activation domain activity: 57600

MFFCYLTVILSMDAFYYYQSHLNWTSTQLYVTWFNACFRNGLIRIIYFVFWWL
transcriptional activation domain activity: 76300

MFFFLLLFIIVMYGCLVCEVIHTSFVGLIMVSTLMLNAFSCFMSFTYFLFFLF
transcriptional activation domain activity: 59000

MFFFLSAFLLPFLFFLVGHSAPSFLYLVFLSFLFYYLLHFYFFLFFTYFCGSC
transcriptional activation domain activity: 59300

MFFIFFFWFVFFPLTIFLLSSSIFGFLFSSSFLFYYYYFFLWGGRPFIFPFYS
transcriptional activation domain activity: 33300

MFFIIILFLVIYSGKISSNFLSFLYRLLLFMLISAQLSVLHCYCLYIFHRCYC
transcriptional activation domain activity: 30900

MFFILASFSYYYYTHHISLDKVGNFLCRFIHPVFLCSIFIFPFLLYLFKIIYY
transcriptional activation domain activity: 39100

MFFKMMTTQDIQFVNVCFKLHSTLPMLFIGGIFLIIHCTSSSAIKGRICTAAF
transcriptional activation domain activity: 34100

MFFLFFLLVSWWLCYLLLMASSFLIVGGMYLLALCPPLGCIGDLVVPFYFLFL
transcriptional activation domain activity: 81700
